Source: paper PMC3776778, “A Fully Human Inhibitory Monoclonal Antibody to the Wnt Receptor RYK” (PLoS ONE, 2013)

Target: T1, recombinant mouse Wnt3a protein (mouse, UniProt P27467 19-352)
T1 construct: recombinant mouse Wnt3a (R&D Systems); the bought protein is probably the mature secreted form (surmise); also called recombinant Wnt3a protein; source: bought: R&D Systems
Test: ELISA; competitive ELISA, third round of a screen of a human scFv phage display library: phage clones against recombinant mouse Wnt3a for binding to purified hRYKWD.Fc
Conditions: both partners purified

T1 sequence (P27467 19-352): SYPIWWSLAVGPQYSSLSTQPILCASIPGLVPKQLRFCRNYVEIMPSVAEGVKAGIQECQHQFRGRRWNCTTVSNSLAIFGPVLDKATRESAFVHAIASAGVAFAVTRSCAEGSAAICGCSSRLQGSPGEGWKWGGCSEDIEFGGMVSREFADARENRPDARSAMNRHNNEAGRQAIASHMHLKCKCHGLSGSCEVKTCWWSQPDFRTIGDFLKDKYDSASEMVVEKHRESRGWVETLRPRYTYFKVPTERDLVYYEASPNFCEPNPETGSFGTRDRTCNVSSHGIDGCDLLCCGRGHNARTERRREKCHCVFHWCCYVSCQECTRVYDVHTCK

B1: hRYKWD.Fc (WIF domain of human RYK fused to the Fc.FLAG region of human IgG1) (Fc fusion, UniProt P34925 66-194, looked up)
chain: LYLSEDEVRRLIGLDAELYYVRNDLISHYALSFSLLVPSETNFLHFTWHAKSKVEYKLGFQVDNVLAMDMPQVNISVQGEVPRTLSVFRVELSCTGKVDSEVMILMQLNLTVNSSKNFTVLNFKRRKMC
notes: WIF domain of human RYK, lacking the metalloprotease cleavage site; also called hRYKWD.Fc.FLAG; human RYK WIF domain-only fusion protein
  binding result: binds
